Laboratory results published in PMC4726326, “The Arabidopsis glutamyl-tRNA reductase (GluTR) forms a ternary complex with FLU and GluTR-binding protein” (Scientific Reports, 2016).

B1: C-terminal tetratricopeptide-repeat domain of Arabidopsis FLUORESCENT (FLU), residues 195-316 (domain or fragment, Arabidopsis thaliana, UniProt Q940U6 195-316, looked up)
chain: IVEPKKQELISKLKTGKTFLRNQEPEKAYTEFKIALELAQSLKDPTEEKKAARGLGASLQRQGKYREAIQYHSMVLAISKRESEDSGITEAYGAIADCYTELGDLEKAGKFYDTYIARLETD
notes: FLUORESCENT (FLU), Arabidopsis thaliana, At3g14110, truncation of residues 195-316 (TPR domain); Expression vector pET-22b(+); also called FLU^TPR; the recombinant TPR domain of FLU
B2: Arabidopsis GluTR-binding protein (GBP), residues 42-317 (natural protein, Arabidopsis thaliana, UniProt Q9LU39 42-317, looked up)
chain: CSVSTTLDTPATASTHKPFPAEVSRSIMELSSVGTLSTLTHDGWPLGVGVRFAVDKDGTPVLCLNRSVSPDKRSALHVQLEQCGLRTPQCTIQGSIGRPGDDTVLKRLSATWREKFGEEVKEDSLYVVAVDRVLQMEDFMEDGIWVASSDYKNASPDPLRDIAEDIVNQINANNMEDIFRFCNVYVDLDFVVSETKMIWMDRLGFDLRVWSPRGVYDVRIPFPMEVTDEKGAKSSFNGMSQLAWEVEKSYCPADFNKVKLLKQVVGSSHSHKGGGQ
notes: Expression vector pET-28a(+)
B3: Arabidopsis glutamyl-tRNA reductase (GluTR), residues 73-543 (enzyme, Arabidopsis thaliana, UniProt P42804 73-543, looked up)
chain: AASISALEQLKNSAADRYTKERSSIVVIGLSIHTAPVEMREKLAIPEAEWPRAIAELCGLNHIEEAAVLSTCNRMEIYVLALSQHRGVKEVTEWMSKTSGIPVSEICQHRFLLYNKDATQHIFEVSAGLDSLVLGEGQILAQVKQVVKVGQGVNGFGRNISGLFKHAITVGKRVRTETNIASGAVSVSSAAVELALMKLPQSSNVSARMCVIGAGKMGKLVIKHLMAKGCTKVVVVNRSEERVSAIREEMPGIEIIYRPLDEMLACASEADVVFTSTASETPLFLKEHVENLPQASPEVGGLRHFVDISVPRNVGSCVGEVETARVYNVDDLKEVVAANKEDRMRKAMEAQTIITEESTQFEAWRDSLETVPTIKKLRAYAERIRVAELEKCMSKMGDDINKKTTRAVDDLSRGIVNRFLHGPMQHLRCDGSDSRTLSETLENMHALNRMYGLEKDILEEKLKAMAEQQQK
notes: Expression vector pMAL-c5X; GluTR dimer fractions were collected from the gel filtration

Assays:
[1] = molecular target: B3; experiment: SEC; purified GluTR, GBP and FLU^TPR mixed at molar ratio 2:3:3, 1 hour at 4 °C; HiLoad 16/60 Superdex 200 pg; 20 mM Tris-HCl pH 7.5, 200 mM NaCl, 4 mM dithiothreitol; conditions: both partners purified
[2] = molecular target: the molecule itself; experiment: crystal structure; FLU^TPR-GluTR-GBP ternary complex, space group C2, 3.2 Å, PDB 5CHE; sitting drop, 16 °C
[3] = molecular target: B3; experiment: ITC; MicroCal iTC200, 25 °C; 20 mM Tris-HCl pH 7.5, 150 mM NaCl; 20 injections of 2 μl of 0.5 mM protein into 200 μl of 50 μM protein; one-site binding model; apparent Kd; conditions: both partners purified

| Binder | binding result [1] | binding result [2] | Kd [3] [nM] | stoichiometry N [2] |
| --- | --- | --- | --- | --- |
| B1 | binds | binds | – | – |
| B2 | – | binds | 41.3 ± 3.7 | – |
| B3 | – | – | – | 2 |
